In article PMC3097226:

B1: CD95 (Fas/APO-1): N118Q (protein)
parent chain: MLGIWTLLPLVLTSVARLSSKSVNAQVTDINSKGLELRKTVTTVETQNLEGLHHDGQFCHKPCPPGERKARDCTVNGDEPDCVPCQEGKEYTDKAHFSSKCRRCRLCDEGHGLEVEINCTRTQNTKCRCKPNFFCNSTVCEHCDPCTKCEHGIIKECTLTSNTKCKEEGSRSNLGWLCLLLLPIPLIVWVKRKEVQKTCRKHRKENQGSHESPTLNPETVAINLSDVDLSKYITTIAGVMTLSQVKGFVRKNGVNEAKIDEIKNDNVQDTAEQKVQLLRNWHQLHGKKEAYDTLIKDLKKANLCTLAEKIQTIILKDITSDSENSNFRNEIQSLV
B2: CD95 (Fas/APO-1): N136Q (protein)
parent chain: B1 parent chain
B3: CD95 (Fas/APO-1): N118Q/N136Q (protein)
parent chain: B1 parent chain
B4: CD95 (Fas/APO-1): VCN (protein)
parent chain: B1 parent chain
B5: CD95 (Fas/APO-1): DMM (protein)
parent chain: B1 parent chain

Key:
[1] = cycloheximide chase, Western blot, HEK293T; conditions: glycan lost; control: WT CD95
[2] = high molecular weight CD95 complexes after anti-APO-1, Western blot; conditions: glycan lost; control: WT CD95
[3] = anti-APO-1 surface staining (flow cytometry), transient HeLa; conditions: glycan lost; control: WT CD95
[4] = confocal microscopy, stable HeLa lines; conditions: glycan lost; control: WT CD95
[5] = anti-APO-1 surface staining, flow cytometry; conditions: glycan changed form; control: untreated SKW6.4 cells

| Protein | degradation_or_half_life [1] | oligomerisation [2] | localisation_or_trafficking [3] | localisation_or_trafficking [4] | localisation_or_trafficking [5] |
| --- | --- | --- | --- | --- | --- |
| B1 | no change | no change | no change | no change | – |
| B2 | no change | no change | no change | no change | – |
| B3 | no change | no change | – | – | – |
| B4 | – | – | – | – | no change |
| B5 | – | – | – | – | no change |
